This is an account of results in patent US20250326863A1.

This assay addresses human IgG. The experiment in a line: bio-layer interferometry. Background: In BLI a coated tip is dipped into the sample, and binding shifts an interference pattern.

B1: recombinant monoclonal low affinity rheumatoid factor RF^low (human IgM; RC1 of Youngblood et al. 1994) (antibody, V domains shown)
VH: QVQLVQSGGGVVQPGRSLRLSCAASGFTFSSYAMHWVRQAPGKGLEWVAVISYDGSNKYYAESVKGRFTISRDNSKNTLYLRMNSLRTEETAVYYCARDGDVGSYGPGTYYPIDYWGQGTLVSVSP
VL: EIVLTQSPATLSLSPGERATLSCRASQSVSSYLAWYQEKPGTAPRLLIYDASNRATGIPARFSGSGSGTDFTLTISSLEPEDFAVYYCQQRRNWPLTFGPGTKVDIK
Usually Kd stands for the constant that tells how readily two partners part at equilibrium. B1: the dissociation constant (Kd) turned out to be 100 nM.
